Assay in all cases: counting of free and bound DNA origami nanostructures in electron micrographs (TEM); peptides displayed on DNA origamis A and B through oligonucleotide tags; gel-purified An and Bn mixed, total monomer concentrations 0.25-2.4 nM; background of random coincidences subtracted; Kd from the slope of a linear fit through the origin; additional systematic error of approximately 20%
For data set [1], the target named is T1, B2: DNA origami B decorated with two β-CC-Di-KE (azidonorleucine (Z) at the N-terminus, joined to oligonucleotide tag β, which is hybridised to a handle of DNA origami B).
T1 chain: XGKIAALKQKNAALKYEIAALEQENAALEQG
Particulars: both partners purified.

The target in data set [2] is T2, B3: DNA origami B decorated with three β-CC-Di-KE (azidonorleucine (Z) at the N-terminus, joined to oligonucleotide tag β, which is hybridised to a handle of DNA origami B).
T2 chain: T1 chain
Particulars: both partners purified.

Data set [3] deals with the molecule itself.
Data set [4] has as its target T3, B1: DNA origami B decorated with one β-CC-Di-KE (azidonorleucine (Z) at the N-terminus, joined to oligonucleotide tag β, which is hybridised to a handle of DNA origami B).
T3 chain: T1 chain
To be noted: both partners purified.

Where no end group is shown, it is not given here. [ ]: non-standard residue; d: D form. Lys(N3) = [N-]=[N+]=NCCCC[C@H](N)C(=O)O

B1: A2: DNA origami A decorated with two CC-Di-EK-α (other)
chain: GEIAALEQENAALEQKIAALKWKNAALKQG[Lys(N3)]-NH2
modifications: not fully specified; also: tag α hybridised to handle of DNA origami A, two copies per origami
In turn, B1 displayed a Kd in data set [1] of 25 ± 3 nM.
For GEIAALEQENAALEQKIAALKWKNAALKQG[Lys(N3)]-NH2 (other, also: tag α hybridised to handle of DNA origami A, three copies per origami) [A3: DNA origami A decorated with three CC-Di-EK-α], the Kd in data set [2] was 0.7 ± 0.1 nM; in data set [3], 24 ± 4 nM.
Molecule GEIAALEQENAALEQKIAALKWKNAALKQG[Lys(N3)]-NH2 (other, also: tag α hybridised to handle of DNA origami A, one copy per origami) [A1: DNA origami A decorated with one CC-Di-EK-α] returned a Kd in data set [4] of 130 ± 20 nM.

Usually Kd stands for the equilibrium constant for the complex coming apart.

The values above are taken from paper PMC6764022 (ACS Nano, 2019).
